Target: Delta-C70-Ferritin-HexaPro (DCFHP), from Expi293F cells (SARS-CoV-2 (Wuhan-1 isolate) | H. pylori) (UniProt P0DTC2)
Experiment: SEC-MALS

Substance “Delta-C70-Ferritin-HexaPro (DCFHP), from Expi293F cells (from UniProt P0DTC2 14-1146; Q9ZLI1 5-167)” has a stoichiometry N of 24.
